Values joined by “and” are separate entries in the source; they are usually repeats but may differ in a detail not shown here. Equal values may be shown once.
T1: ECF11_987
T1 chain: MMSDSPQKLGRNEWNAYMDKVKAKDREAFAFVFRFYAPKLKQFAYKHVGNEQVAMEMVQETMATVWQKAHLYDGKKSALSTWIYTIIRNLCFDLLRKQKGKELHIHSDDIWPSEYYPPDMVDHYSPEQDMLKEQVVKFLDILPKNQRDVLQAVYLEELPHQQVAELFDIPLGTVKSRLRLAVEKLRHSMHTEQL

T2: ECF17_1691
T2 chain: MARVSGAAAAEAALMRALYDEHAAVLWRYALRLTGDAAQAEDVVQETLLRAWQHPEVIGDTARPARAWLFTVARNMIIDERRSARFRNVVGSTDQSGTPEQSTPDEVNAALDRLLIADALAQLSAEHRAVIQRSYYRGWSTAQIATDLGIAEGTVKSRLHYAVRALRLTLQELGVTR

T3: ECF22_1147
T3 chain: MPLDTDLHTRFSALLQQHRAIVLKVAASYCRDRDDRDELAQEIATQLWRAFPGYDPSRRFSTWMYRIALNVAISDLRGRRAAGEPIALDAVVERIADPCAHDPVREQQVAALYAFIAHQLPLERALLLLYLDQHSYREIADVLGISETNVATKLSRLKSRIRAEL

T4: ECF28_1088
T4 chain: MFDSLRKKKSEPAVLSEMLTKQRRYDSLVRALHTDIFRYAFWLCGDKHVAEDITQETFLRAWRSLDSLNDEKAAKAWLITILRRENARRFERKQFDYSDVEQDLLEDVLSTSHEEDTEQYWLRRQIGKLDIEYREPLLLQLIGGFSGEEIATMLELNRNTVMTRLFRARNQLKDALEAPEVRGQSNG

T5: ECF35_3582
T5 chain: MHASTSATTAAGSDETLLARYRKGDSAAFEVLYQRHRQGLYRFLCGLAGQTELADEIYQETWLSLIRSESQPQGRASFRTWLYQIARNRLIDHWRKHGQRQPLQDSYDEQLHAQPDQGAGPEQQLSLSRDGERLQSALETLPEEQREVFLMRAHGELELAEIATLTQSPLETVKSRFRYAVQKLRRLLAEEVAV

T6: ECF12_807
T6 chain: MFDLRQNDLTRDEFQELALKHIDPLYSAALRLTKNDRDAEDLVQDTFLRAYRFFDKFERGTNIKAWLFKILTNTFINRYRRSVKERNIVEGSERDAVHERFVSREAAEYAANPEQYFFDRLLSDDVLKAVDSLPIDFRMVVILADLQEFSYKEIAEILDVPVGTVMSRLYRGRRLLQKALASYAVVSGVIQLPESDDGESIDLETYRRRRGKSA

T7: ECF14_1324
T7 chain: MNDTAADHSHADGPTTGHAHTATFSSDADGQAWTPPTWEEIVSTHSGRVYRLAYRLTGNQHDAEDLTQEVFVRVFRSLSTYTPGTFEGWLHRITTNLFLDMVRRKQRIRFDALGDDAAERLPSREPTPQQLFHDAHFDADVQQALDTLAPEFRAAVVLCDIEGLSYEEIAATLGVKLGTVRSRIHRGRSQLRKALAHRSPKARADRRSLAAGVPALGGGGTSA

T8: ECF33_375
T8 chain: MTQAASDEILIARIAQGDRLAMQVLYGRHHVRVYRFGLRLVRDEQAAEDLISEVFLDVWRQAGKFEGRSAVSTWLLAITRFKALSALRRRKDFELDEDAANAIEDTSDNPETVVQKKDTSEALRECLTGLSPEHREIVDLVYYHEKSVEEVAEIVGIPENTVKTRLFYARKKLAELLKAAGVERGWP

T9: ECF33_423
T9 chain: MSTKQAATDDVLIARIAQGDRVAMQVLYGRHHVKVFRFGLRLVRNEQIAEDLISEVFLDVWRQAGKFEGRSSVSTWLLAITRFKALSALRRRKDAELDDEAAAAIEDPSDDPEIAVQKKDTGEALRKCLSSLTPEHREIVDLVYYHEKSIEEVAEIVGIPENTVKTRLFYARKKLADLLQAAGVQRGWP

T10: ECF30_35
T10 chain: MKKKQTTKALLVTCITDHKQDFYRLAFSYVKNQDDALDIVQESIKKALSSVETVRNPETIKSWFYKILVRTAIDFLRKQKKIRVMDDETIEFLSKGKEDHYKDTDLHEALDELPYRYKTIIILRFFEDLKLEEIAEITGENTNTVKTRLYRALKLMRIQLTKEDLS

T11: ECF04_1609
T11 chain: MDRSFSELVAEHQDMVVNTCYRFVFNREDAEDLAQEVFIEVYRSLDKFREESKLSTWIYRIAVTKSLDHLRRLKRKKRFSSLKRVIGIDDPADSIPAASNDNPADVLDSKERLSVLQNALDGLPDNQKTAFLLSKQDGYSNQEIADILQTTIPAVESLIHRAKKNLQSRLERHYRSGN

T12: ECF28_1040
T12 chain: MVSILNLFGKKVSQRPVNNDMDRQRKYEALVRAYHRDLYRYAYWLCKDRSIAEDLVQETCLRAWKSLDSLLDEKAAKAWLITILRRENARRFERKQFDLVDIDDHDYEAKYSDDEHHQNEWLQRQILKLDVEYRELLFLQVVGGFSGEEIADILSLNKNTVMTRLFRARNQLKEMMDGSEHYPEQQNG

T13: ECF02_915
T13 chain: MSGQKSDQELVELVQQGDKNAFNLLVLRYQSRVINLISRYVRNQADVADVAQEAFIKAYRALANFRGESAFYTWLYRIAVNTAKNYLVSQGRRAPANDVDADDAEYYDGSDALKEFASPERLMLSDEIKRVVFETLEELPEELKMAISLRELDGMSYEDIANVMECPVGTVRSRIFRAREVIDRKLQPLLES

T14: ECF25_1643
T14 chain: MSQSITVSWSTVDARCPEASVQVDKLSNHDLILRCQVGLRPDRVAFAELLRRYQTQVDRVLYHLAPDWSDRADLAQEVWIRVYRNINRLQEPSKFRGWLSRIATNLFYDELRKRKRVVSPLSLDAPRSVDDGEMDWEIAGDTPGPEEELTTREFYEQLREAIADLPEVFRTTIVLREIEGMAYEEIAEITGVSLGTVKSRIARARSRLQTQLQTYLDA


Key:
ECF11_987 = biological target: T1, ECF11_987
ECF17_1691 = biological target: T2, ECF17_1691
ECF22_1147 = biological target: T3, ECF22_1147
ECF28_1088 = biological target: T4, ECF28_1088
ECF35_3582 = biological target: T5, ECF35_3582
ECF12_807 = biological target: T6, ECF12_807
ECF14_1324 = biological target: T7, ECF14_1324
ECF33_375 = biological target: T8, ECF33_375
ECF33_423 = biological target: T9, ECF33_423
ECF30_35 = biological target: T10, ECF30_35
ECF04_1609 = biological target: T11, ECF04_1609
ECF28_1040 = biological target: T12, ECF28_1040
ECF02_915 = biological target: T13, ECF02_915
ECF25_1643 = biological target: T14, ECF25_1643

Binder	fold repression (ECF11_987)	fold repression (ECF26_4464)	fold repression (ECF17_1691)	fold repression (ECF22_1147)	fold repression (ECF28_1088)	fold repression (ECF35_3582)	fold repression (ECF12_807)	fold repression (ECF14_1324)	fold repression (ECF33_375)	fold repression (ECF33_423)	fold repression (ECF30_35)	fold repression (ECF04_1609)	fold repression (ECF28_1040)	fold repression (ECF02_915)	fold repression (ECF25_1643)
AS37_2513 (protein) MSSAPATKEEVDFALKVRRALDERAASLPDATTDRLAAARRAALARKKPDAAIVLVPALAGSAGTLELRPPGEPRKSLARRLARAWPLALLLAGLIGIAYWEDMQRTAELADIDAAMLSDNLPLTAYLDHGFNAYLSHTH	9.25	7.32	4.17	8.31	3.31	2.62	9.33	13.8	2.48	3.3	3.08	4.3	2.67	2.67	5.22 and 5.59
AS33_375 (protein) MMALSKKMLEQEPSEIELLLPWHAAGTLNARDARRVEDALARDPELAKQYAAIRGEYEETIHLNESLGAPSARAMQKLFGAIDAEPARETGSLPLSARIATFFASLSPRTLAWSASLGAVALVLQAGIIGAVLMKTQPTTFQTASLSTSAPITRELGAAVAPARALVRFTPEARVADITALLDSYQASIIGDAKGGMFRLQFDKAMSQDELASLLGRMQREKFVNLAVAAP	17.1	14.1	3.94	12.9	3.72	5.86	7.97	44.6	152	113	4.68	11.1	3.33	4.71	5.97 and 4.93
AS33_423 (protein) MMAMSNTMPDPREPGDVEALLPWYAAGTLNARDARRVADALDRDPALARQYAVILEEYASTIELNESLGAPSSRAMQKLFAAIDAEPARAPGAGQGLGARFAGFFAGLSPKALAWSASVAGLALLLQAGLIGALLTWPHAAPVQTAAYQPQREVARAPASSPAPATVSPPAAAMADRAADAGKSTPPMVMAERSGGPVVRSLAPQSGPRVLVKFAPEARASEIAALLDQYNAVVVDSSRGGLFRLQFGTQSLSKQDQETLIGRLQKEPVVSVVLSAP	13.7	9.42	3.16	9.02	3.17	6.37	6.47	36	114	84.3	3.09	6.18	2.67	4.97	3.19 and 2.96
AS38_1322 (protein) MSDGNDARPDARDGHDPGSDARDGHDPGSHARDGHDPGAGPFDGHGPGSDAGDGDDAGPDARDGHGAPAGPAGREQRKHPHDTHDMHDTHDTHAGKGTVNHGPAAQGPDAPGADGPATDEAALRAMMQRAVREMEPSDGTLEHLRRAVPARRARKRQALVGAAAAALFLGTAVPALVHVSNATGAGADPSVAGNASQAQGGASQGKDPAGGQSGVAGTGDTPEDRDKADPKETPGGKEPGAATGAPPSGVPSASSPADVPACAPGSLGPAVASSAEPDSTGVVYGSFRVTNVSSDGCTVTGPGTVVTASLGAAEATRIGTARHAAGDAAAGLPDPSLETASLALAPGAAYEVQFAWVPSETCPTTGGTTGGGSGGPSPDPSPTADTTAAGGTSAGGGEAGPTTQLITEDGPAEGSVSVTYTPEGGSGSATATVSNACAGTVYWTGLLADSGSGA	10.4	5.74	2.81	6.04	3.19	2.8	5.77	8.93	3.13	3.68	3.08	4.63	2.92	3.62	4.12 and 4.01
AS35_3582 (protein) MNPQKHSASVAEEQMLAHFRAHAPQQPAPALDQAILAAARRQAAHVEPARSWWRRWLEASRRPRWQAAFASLLGVALVLGLVSHNVLDDAERQARPEVAFSDVPLRDGVAGAAAAKRAMRAPAAPAPLSGEMSEPPALLASYASSGEAPQLMAEAAPPAPAALADRPPAQAAQQAKVQAALAGDFVAQARGKAVAVKPEVLDEALGAVLALREQGKTEQAATQLAELQKRFPGENLVERLERLATIAASARKRP	9.63	10.7	4.63	10.9	3.76	311	10.1	13.1	2.9	3.76	2.03	6.84	2.76	3.95	5.68 and 4.69
